B1: FLAG-tagged BAAT1 (full length) (other)
chain: MDPECAQLLPALCAVLVDPGQPVADDTCLEKLLDWFKTVTEGESSVVLLQEHPCLVELLSHVLKVQDLSSGVLSFSLRLAGTFAAQENCFQYLQQGELLPGLFGEPGPLGRATWAVPTVRSGWIQGLRSLAQHPSALRFLADHGAVDTIFSLQGDSSLFVASAASQLLVHVLALSMRGGAEGQPCLPGGDWPACAQKIMDHVEESLCSAATPKVTQALNVLTTTFGRCQSPWTEALWVRLSPRVACLLERDPIPAAHSFVDLLLCVARSPVFSSSDGSLWETVARALSCLGPTHMGPLALGILKLEHCPQALRTQAFQVLLQPLACVLKATVQAPGPPGLLDGTADDATTVDTLLASKSSCAGLLCRTLAHLEELQPLPQRPSPWPQASLLGATVTVLRLCDGSAAPASSVGGHLCGTLAGCVRVQRAALDFLGTLSQGTGPQELVTQALAVLLECLESPGSSPTVLKKAFQATLRWLLSSPKTPGCSDLGPLIPQFLRELFPVLQKRLCHPCWEVRDSALEFLTQLSRHWGGQADFRCALLASEVPQLALQLLQDPESYVRASAVTAMGQLSSQGLHAPTSPEHAEARQSLFLELLHILSVDSEGFPRRAVMQVFTEWLRDGHADAAQDTEQFVATVLQAASRDLDWEVRAQGLELALVFLGQTLGPPRTHCPYAVALPEVAPAQPLTEALRALCHVGLFDFAFCALFDCDRPVAQKSCDLLLFLRDKIASYSSLREARGSPNTASAEATLPRWRAGEQAQPPGDQEPEAVLAMLRSLDLEGLRSTLAESSDHVEKSPQSLLQDMLATGGFLQGDEADCY
notes: Transiently expressed in 293T cells; the clone used was IMAGE BC015632; also called FLAG-BAAT1; not shown: FLAG tag

Experiments:
[1] = target: T1, BRCA1 (endogenous, from human cell lysates) (human, UniProt P38398 1-1863); assay: immunoprecipitation with anti BRCA1 21A1 from 293T cells, anti FLAG blot
T1 construct: Endogenous cellular protein immunoprecipitated with anti BRCA1 antibodies C-20 or 21A1; also called breast cancer susceptibility gene 1 protein; endogenous BRCA1
Text: (§1) GST-BRCA1 fragments were precipitated with GSH beads and samples were immunoblotted with anti FLAG antibody. […] After immunoprecipitation with anti BRCA1 21A1 antibody, samples were immunoblotted with FLAG antibody. […] NS: non-specific signals. […] Two different anti BRCA1 antibodies (C-20 and 21A1) and anti ATM antibodies (N-17 and 2C1) were used for the assay.

[2] = target: B1; assay: GST pulldown from co-transfected 293T cells, anti FLAG blot
Protocol: as §1
(§2) Co-Immunoprecipitation and GST Pull-Down Assays: HeLa or NMEs cells were lysed for 30 min in 500 ml of lysis buffer (50 mM Tris-HCl pH 7.5, 100 mM NaCl, 0.5% NP-40, 0.5% DOC, 5 mM EDTA, and protease inhibitors: 100 mg/ml PMSF, 2 mg/ml Aprotinin, 2 mg/ml Leupeptin). One milligram of total cell lysates was incubated with 10 mg/ml of ethidium bromide and the primary antibody for 3 h followed by incubation with either Protein A or Protein G agarose beads overnight at 4° C. The immunocomplexes were separated on SDS-PAGE gels and visualized by Western blotting. […] After pulldown with GSH beads, samples were separated in SDS-polyacrylamide gel and visualized by Western blotting.

[3] = target: T1, BRCA1 (endogenous, from human cell …); assay: co-immunoprecipitation of endogenous proteins from HeLa cells
Protocol: as §1, §2

Row | binding result [1] | Binder | also measured
1 | binds | FLAG-tagged C-terminal BAAT1 (amino acids 176-821) (other, Expressed in 293T cells; co-precipitated with BRCA1 by the anti BRCA1 21A1 antibody and blotted with anti FLAG; not shown: FLAG tag) MRGGAEGQPCLPGGDWPACAQKIMDHVEESLCSAATPKVTQALNVLTTTFGRCQSPWTEALWVRLSPRVACLLERDPIPAAHSFVDLLLCVARSPVFSSSDGSLWETVARALSCLGPTHMGPLALGILKLEHCPQALRTQAFQVLLQPLACVLKATVQAPGPPGLLDGTADDATTVDTLLASKSSCAGLLCRTLAHLEELQPLPQRPSPWPQASLLGATVTVLRLCDGSAAPASSVGGHLCGTLAGCVRVQRAALDFLGTLSQGTGPQELVTQALAVLLECLESPGSSPTVLKKAFQATLRWLLSSPKTPGCSDLGPLIPQFLRELFPVLQKRLCHPCWEVRDSALEFLTQLSRHWGGQADFRCALLASEVPQLALQLLQDPESYVRASAVTAMGQLSSQGLHAPTSPEHAEARQSLFLELLHILSVDSEGFPRRAVMQVFTEWLRDGHADAAQDTEQFVATVLQAASRDLDWEVRAQGLELALVFLGQTLGPPRTHCPYAVALPEVAPAQPLTEALRALCHVGLFDFAFCALFDCDRPVAQKSCDLLLFLRDKIASYSSLREARGSPNTASAEATLPRWRAGEQAQPPGDQEPEAVLAMLRSLDLEGLRSTLAESSDHVEKSPQSLLQDMLATGGFLQGDEADCY | 
2 |  | GST-tagged BRCA1 BRCT domains, breast cancer-associated mutant Met1775Arg (other, UniProt P38398 1560-1863, looked up, domain: BRCT domains; also called M1775R; not shown: GST tag) GTPYLESGISLFSDDPESDPSEDRAPESARVGNIPSSTSALKVPQLKVAESAQSPAAAHTTDTAGYNAMEESVSREKPELTASTERVNKRMSMVVSGLTPEEFMLVYKFARKHHITLTNLITEETTHVVMKTDAEFVCERTLKYFLGIAGGKWVVSYFWVTQSIKERKMLNEHDFEVRGDVVNGRNHQGPKRARESQDRKIFRGLEICCYGPFTNRPTDQLEWMVQLCGASVVKELSSFTLGTGVHPIVVVQPDAWTEDNGFHAIGQMCEAPVVTREWVLDSVALYQCQELDTYLIPQIPHSHY | binding result [2]: no binding
3 | binds | B1 | 
4 |  | BAAT1 (endogenous, from human cell lysates) (other, Endogenous cellular protein detected with the anti-BAAT1 antibody; also called endogenous BAAT1; hBAAT1) MDPECAQLLPALCAVLVDPGQPVADDTCLEKLLDWFKTVTEGESSVVLLQEHPCLVELLSHVLKVQDLSSGVLSFSLRLAGTFAAQENCFQYLQQGELLPGLFGEPGPLGRATWAVPTVRSGWIQGLRSLAQHPSALRFLADHGAVDTIFSLQGDSSLFVASAASQLLVHVLALSMRGGAEGQPCLPGGDWPACAQKIMDHVEESLCSAATPKVTQALNVLTTTFGRCQSPWTEALWVRLSPRVACLLERDPIPAAHSFVDLLLCVARSPVFSSSDGSLWETVARALSCLGPTHMGPLALGILKLEHCPQALRTQAFQVLLQPLACVLKATVQAPGPPGLLDGTADDATTVDTLLASKSSCAGLLCRTLAHLEELQPLPQRPSPWPQASLLGATVTVLRLCDGSAAPASSVGGHLCGTLAGCVRVQRAALDFLGTLSQGTGPQELVTQALAVLLECLESPGSSPTVLKKAFQATLRWLLSSPKTPGCSDLGPLIPQFLRELFPVLQKRLCHPCWEVRDSALEFLTQLSRHWGGQADFRCALLASEVPQLALQLLQDPESYVRASAVTAMGQLSSQGLHAPTSPEHAEARQSLFLELLHILSVDSEGFPRRAVMQVFTEWLRDGHADAAQDTEQFVATVLQAASRDLDWEVRAQGLELALVFLGQTLGPPRTHCPYAVALPEVAPAQPLTEALRALCHVGLFDFAFCALFDCDRPVAQKSCDLLLFLRDKIASYSSLREARGSPNTASAEATLPRWRAGEQAQPPGDQEPEAVLAMLRSLDLEGLRSTLAESSDHVEKSPQSLLQDMLATGGFLQGDEADCY | binding result [3]: binds

— patent US20070072210A1 (published 2007)
